Assay results from PMC4750968, “A Splice Variant of Bardet-Biedl Syndrome 5 (BBS5) Protein that Is Selectively Expressed in Retina” (PLoS ONE, 2016).

B1: BBS5-GST (Bardet-Biedl Syndrome 5 protein in fusion with glutathione-S-transferase) (natural protein, mouse, UniProt Q9CZQ9 1-341, looked up)
chain: MSVLDVLWEDRDVRFDVSSQQMKTRPGEVLIDCLDSIEDTKGNNGDRGRLLVTNLRIIWHSLALPRVNLSIGYNCILNITTRTANSKLRGQTEALYILTKCNTTRFEFIFTNLVPGSPRLFTSVIAVHRAYETSKMYRDFKLRSAVIQNKQLRLLPQEHVYDKINGVWNLSSDQGNLGTFFITNVRIVWHANMNDSFNVSIPYLQIRSIKIRDSKFGLALVIESSQQSGGYVLGFKIDPVEKLQESVKEINSLHKVYSASPIFGVNYEMEEKPQPLEALTVEQIQDDVEIDSDDHTDAFVAYFADGNKQQDREPVFSEELGLAIEKLKDGFTLQGLWEVMS
notes: BBS5, mouse; open-reading frame amplified from murine retinal cDNA; cDNA for His-tagged BBS5 was cloned into pGEX-4T-1 at the EcoRI site, fused to the C-terminus of GST; not shown: GST, N-terminal, kept

How the values were obtained:
Experiment in all cases: pull-down; 6.6 uM I16C-Alexa546-ARR1 mixed with 0.1 uM BBS5L-GST, BBS5-GST or GST, overnight at 4°C; immunoprecipitated with anti-GST antibody on magnetic beads; fluorescence of the captured arrestin1 measured
[1] = target: BBS5L-GST (splice variant of BBS5 in fusion with glutathione-S-transferase) (mouse)
[2] = target: BBS5L-GST phosphorylated by protein kinase C (mouse)
[3] = target: T1, I16C-Alexa546-ARR1 (I16C-substituted bovine arrestin1 labeled with AlexaFluor-546) (bovine, UniProt P08168 1-404, I16C, AlexaFluor-546 on the reactive sulfhydryl group generated by I16C); conditions: both partners purified
T1 construct: arrestin1 (S-arrestin), bovine, with the substitution I16C; also called ARR1-Alexa546; fluorescently labeled arrestin1
T1 sequence (P08168 whole entry I16C): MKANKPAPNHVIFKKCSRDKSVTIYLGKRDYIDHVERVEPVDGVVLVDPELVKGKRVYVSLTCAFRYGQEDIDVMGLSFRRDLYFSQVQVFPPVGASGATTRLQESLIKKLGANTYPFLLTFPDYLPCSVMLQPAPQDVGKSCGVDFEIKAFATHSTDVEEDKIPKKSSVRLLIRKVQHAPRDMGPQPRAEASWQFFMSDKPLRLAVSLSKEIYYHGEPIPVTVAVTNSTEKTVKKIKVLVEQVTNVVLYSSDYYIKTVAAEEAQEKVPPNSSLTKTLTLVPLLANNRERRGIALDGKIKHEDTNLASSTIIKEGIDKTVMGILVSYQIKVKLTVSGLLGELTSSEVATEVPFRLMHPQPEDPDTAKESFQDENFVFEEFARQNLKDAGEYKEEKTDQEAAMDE

Molecule	amount of arrestin1 bound relative to BBS5 [1]	percent reduction of arrestin1 pull-down against unphosphorylated BBS5L [2] [%]	binding result [3]
I16C-Alexa546-ARR1 (I16C-substituted bovine arrestin1 labeled with AlexaFluor-546) (from UniProt P08168 1-404) (natural protein)	0.5 fold of BBS5	31	–
B1	–	–	binds
